Two substances from publication PMC6208366 can be followed below.

pKd: −log10 of the molar value.

As a reminder, the pKd is the negative decadic logarithm of the Kd, by convention in mol/L.

Assay [1] concerns the target human full-length Hsp90β (human) (UniProt P08238). The assay is described as follows: ITC. The conditions noted are these: domain or fragment.
In assay [2] the target is IANBD-labeled Hsp90 M362C (human). The assay is described as follows: stopped-flow fluorescence; IANBD-labeled Hsp90 M362C (1 µM) mixed with equal volumes of FKBP51, FK1-FK2, FK2-TPR or buffer, pseudo-first-order, 37 °C, 25 mM sodium phosphate/300 mM NaCl pH 7.2; rates as fluorescence increase at 20 s.

human full-length Hsp90β (human), sequence (P08238 whole entry, the tested form may be a part): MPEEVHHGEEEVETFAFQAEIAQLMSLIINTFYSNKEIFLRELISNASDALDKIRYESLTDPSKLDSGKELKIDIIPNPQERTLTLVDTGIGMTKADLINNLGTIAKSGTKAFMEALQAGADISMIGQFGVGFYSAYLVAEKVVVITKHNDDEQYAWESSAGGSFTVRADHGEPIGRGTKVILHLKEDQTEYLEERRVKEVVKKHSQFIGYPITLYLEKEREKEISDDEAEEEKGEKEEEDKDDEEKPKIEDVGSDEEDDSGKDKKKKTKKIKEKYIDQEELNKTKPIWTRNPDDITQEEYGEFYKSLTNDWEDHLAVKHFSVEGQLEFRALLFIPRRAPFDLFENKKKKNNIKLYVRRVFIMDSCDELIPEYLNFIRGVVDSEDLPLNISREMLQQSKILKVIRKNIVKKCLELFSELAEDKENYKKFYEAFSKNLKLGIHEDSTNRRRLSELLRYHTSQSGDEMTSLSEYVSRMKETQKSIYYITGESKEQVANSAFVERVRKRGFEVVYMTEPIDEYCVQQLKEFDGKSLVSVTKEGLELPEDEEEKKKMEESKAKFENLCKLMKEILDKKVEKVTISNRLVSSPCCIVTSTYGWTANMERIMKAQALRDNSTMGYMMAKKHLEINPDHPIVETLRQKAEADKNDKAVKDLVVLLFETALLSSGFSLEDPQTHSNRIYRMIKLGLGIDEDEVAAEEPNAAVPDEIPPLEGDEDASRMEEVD
FK2-TPR (which lacks FK1), sequence (Q13451 whole entry): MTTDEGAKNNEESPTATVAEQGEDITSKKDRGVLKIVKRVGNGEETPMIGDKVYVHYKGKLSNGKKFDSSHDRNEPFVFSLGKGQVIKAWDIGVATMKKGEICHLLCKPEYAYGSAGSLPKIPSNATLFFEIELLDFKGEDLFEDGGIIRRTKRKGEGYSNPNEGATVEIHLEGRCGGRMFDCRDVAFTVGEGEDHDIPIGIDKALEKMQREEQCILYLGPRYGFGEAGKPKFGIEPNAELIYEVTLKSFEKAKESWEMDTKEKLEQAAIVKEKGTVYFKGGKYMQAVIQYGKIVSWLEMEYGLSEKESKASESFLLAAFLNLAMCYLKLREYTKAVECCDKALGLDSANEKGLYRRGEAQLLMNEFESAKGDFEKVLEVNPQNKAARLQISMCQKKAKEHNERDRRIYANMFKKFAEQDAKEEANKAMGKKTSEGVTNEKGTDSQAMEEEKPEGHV

In the case of “FK2-TPR (which lacks FK1) (from UniProt Q13451 1-457)”, in assay [1], the negative logarithm of the Kd (pKd) is 6.14.

Take “FK2-TPR (which lacks FK1) (from UniProt Q13451 1-457) (domain or fragment)”: the ΔF (rate of Hsp90 binding, fluorescence increase) in assay [2] was determined as 0.0027 s⁻¹.
